Reference: PMC5071567

Experiments:
transthyretin = transthyretin (UniProt P02766); details: cited from earlier work
[1] = target: megalin (LRP-2) (mouse (endogenous in cultured hippocampal neurons)) (UniProt A2ARV4)
megalin (LRP-2) (mouse (endogenous in cultured hippocampal neurons)), sequence (A2ARV4 26-4660): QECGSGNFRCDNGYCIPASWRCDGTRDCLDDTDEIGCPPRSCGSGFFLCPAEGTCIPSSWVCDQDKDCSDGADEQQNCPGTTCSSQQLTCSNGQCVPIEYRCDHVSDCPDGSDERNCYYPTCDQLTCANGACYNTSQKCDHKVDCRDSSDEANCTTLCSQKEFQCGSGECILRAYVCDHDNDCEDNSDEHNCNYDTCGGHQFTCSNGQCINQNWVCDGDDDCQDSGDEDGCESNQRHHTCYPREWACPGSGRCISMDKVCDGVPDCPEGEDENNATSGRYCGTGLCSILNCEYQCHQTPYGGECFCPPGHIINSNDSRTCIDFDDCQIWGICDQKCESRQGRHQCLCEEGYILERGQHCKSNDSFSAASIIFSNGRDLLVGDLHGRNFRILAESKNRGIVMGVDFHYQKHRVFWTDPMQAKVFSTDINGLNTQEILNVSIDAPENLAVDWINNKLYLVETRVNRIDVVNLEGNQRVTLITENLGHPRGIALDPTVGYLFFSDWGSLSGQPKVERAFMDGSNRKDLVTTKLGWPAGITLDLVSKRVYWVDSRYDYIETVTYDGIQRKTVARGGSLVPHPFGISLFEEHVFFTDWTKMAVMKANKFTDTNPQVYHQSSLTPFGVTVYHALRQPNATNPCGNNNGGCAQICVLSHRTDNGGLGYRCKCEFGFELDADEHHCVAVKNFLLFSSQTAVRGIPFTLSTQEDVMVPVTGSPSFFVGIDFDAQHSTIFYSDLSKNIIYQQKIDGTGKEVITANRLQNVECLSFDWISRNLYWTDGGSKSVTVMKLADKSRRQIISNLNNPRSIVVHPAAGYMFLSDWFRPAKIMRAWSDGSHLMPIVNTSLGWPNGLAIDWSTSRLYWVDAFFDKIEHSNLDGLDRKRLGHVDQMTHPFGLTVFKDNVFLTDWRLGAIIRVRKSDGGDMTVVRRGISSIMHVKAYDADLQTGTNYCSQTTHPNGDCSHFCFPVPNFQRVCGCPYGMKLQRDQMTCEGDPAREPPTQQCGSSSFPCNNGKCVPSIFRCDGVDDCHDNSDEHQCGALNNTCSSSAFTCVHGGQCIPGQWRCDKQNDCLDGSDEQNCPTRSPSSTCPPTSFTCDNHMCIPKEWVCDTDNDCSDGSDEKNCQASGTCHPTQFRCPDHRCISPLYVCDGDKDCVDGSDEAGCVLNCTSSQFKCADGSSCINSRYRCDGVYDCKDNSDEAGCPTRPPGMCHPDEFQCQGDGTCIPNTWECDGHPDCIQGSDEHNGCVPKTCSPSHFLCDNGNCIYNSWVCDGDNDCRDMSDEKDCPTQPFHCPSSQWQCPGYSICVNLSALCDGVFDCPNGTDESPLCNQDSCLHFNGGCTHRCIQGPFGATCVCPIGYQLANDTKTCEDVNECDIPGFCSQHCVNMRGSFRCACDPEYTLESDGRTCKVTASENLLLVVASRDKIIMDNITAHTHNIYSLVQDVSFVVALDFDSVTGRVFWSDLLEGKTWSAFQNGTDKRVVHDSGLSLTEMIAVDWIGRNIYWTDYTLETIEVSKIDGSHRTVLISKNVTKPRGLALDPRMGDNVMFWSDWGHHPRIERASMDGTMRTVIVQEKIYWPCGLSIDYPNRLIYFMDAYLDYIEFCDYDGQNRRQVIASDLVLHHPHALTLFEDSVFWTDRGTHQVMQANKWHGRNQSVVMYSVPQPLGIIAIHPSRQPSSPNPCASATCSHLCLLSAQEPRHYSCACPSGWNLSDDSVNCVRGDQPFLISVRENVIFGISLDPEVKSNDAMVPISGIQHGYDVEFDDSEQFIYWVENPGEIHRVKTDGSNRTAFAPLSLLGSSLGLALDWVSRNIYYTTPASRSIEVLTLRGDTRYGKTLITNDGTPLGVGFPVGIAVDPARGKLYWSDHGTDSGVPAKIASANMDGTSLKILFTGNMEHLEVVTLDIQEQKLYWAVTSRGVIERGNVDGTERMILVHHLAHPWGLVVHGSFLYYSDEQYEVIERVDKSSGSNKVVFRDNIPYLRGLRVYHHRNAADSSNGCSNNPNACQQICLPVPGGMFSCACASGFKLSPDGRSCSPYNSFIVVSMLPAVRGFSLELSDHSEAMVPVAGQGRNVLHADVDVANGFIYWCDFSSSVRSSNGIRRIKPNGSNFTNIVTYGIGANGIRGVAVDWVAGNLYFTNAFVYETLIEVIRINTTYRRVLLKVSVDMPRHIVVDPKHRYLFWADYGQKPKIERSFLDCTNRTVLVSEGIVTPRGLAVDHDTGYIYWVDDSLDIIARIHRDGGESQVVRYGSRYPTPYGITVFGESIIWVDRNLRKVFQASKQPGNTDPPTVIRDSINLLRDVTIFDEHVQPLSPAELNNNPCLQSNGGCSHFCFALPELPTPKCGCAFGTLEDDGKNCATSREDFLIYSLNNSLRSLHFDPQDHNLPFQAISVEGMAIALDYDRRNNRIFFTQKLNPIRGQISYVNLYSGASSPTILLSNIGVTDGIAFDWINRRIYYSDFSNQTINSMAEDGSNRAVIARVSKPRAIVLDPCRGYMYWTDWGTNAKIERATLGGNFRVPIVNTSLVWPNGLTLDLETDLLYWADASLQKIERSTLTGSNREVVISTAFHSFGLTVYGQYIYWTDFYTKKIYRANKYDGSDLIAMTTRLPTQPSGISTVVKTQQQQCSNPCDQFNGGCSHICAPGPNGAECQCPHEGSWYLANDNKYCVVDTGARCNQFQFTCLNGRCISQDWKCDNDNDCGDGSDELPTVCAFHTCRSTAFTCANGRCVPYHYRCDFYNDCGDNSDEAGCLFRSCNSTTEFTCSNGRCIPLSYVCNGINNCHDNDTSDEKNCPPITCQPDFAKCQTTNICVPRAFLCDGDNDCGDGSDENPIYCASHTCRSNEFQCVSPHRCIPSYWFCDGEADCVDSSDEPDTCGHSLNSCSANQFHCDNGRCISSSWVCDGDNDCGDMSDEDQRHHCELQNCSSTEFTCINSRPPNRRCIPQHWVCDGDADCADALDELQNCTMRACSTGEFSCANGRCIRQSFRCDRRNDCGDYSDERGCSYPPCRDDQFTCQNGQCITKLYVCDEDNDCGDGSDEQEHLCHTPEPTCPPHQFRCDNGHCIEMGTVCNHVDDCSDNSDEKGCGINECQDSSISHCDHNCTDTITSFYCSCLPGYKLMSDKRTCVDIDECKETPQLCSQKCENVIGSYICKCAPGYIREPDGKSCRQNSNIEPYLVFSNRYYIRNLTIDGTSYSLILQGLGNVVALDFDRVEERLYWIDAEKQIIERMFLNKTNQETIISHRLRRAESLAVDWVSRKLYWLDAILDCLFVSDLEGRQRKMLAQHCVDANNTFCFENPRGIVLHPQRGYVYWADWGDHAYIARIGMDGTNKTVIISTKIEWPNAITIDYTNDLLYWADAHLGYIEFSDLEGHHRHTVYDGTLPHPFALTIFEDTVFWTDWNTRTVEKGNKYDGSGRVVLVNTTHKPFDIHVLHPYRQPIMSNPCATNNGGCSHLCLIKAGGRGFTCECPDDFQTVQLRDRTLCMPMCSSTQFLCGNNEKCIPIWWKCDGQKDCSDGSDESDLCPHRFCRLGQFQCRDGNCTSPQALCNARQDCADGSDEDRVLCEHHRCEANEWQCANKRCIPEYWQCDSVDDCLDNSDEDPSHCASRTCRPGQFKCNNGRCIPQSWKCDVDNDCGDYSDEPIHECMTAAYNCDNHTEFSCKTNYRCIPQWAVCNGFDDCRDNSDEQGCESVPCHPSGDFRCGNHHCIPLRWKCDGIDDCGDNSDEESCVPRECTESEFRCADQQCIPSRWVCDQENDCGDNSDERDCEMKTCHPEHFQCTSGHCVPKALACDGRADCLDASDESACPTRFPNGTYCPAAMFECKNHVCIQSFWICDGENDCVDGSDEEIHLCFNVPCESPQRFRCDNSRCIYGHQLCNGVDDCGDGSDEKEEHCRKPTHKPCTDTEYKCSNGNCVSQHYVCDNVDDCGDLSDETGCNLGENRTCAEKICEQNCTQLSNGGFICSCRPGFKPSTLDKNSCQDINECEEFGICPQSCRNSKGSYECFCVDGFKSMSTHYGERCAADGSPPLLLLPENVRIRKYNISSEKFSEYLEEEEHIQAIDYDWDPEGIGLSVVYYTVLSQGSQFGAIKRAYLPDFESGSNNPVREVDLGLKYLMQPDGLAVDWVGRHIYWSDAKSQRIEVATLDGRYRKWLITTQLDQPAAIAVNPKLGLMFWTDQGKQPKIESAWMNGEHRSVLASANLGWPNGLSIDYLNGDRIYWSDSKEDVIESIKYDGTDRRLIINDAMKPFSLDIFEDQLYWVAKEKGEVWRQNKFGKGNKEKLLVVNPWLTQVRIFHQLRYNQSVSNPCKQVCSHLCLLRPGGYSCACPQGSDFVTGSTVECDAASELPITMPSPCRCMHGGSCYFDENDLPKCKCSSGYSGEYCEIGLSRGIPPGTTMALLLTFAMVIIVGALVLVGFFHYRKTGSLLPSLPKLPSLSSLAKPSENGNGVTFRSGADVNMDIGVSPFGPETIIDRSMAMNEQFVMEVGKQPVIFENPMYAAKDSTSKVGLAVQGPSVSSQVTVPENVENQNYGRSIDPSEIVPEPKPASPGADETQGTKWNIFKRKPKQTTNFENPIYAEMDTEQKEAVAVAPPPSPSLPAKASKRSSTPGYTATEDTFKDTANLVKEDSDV

activation of Src (phospho-Tyr416) by western blot in TTR KO cultured hippocampal neurons, 30 min after mouse TTR (55 μg/ml) [1] [%] | rise of CREB phosphorylation (Ser133) by western blot in TTR KO cultured hippocampal neurons stimulated with mouse TTR (55 μg/ml) [1] [%] | rise of phosphorylated Akt (Ser473) by western blot in TTR KO cultured hippocampal neurons, 30 min after mouse TTR (55 μg/ml) [1] [%] | rise of phosphorylated ERK by western blot in TTR KO cultured hippocampal neurons, 30 min after mouse TTR (55 μg/ml) [1] [%] | Substance | Kd (transthyretin) [µM]
 |  |  |  | megalin (from UniProt P98164) | 0.5
30 to 50 | 20 | 23 | 35 | recombinant mouse transthyretin (from UniProt P07309 21-147) (ligand) | 
